The chains are these.
B1: NCF4 (parent)
chain: FGPDSKSSALACTLPTLPAKVYVG
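Also: lentivirally expressed fusions sorted by FACS into six bins by GFP to DsRed ratio, PSI derived from sequencing read proportions per bin multiplied by bin number.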

Variants of B1 are the subject of this data set. Nature of the data set: protein stability index of a GFP-peptide fusion (GPS, HEK-293T) (PSI 1-6); higher = more stable. The following applies: c terminus: a fixed tail appended.
As for FGPDSKSSALACTLYTLPAKVYVG [P15Y], the protein stability index was 2.87.
With FGPDSKSSALACTLHTLPAKVYVG [P15H] the figure was 1.67.
With FGPDSKSSALACTLQTLPAKVYVG [P15Q] the figure was 1.89; with FGPDSKSSALACTLKTLPAKVYVG [P15K], 1.86; with FGPDSKSSALACTLVTLPAKVYVG [P15V], 1.99.
Take FGPDSKSSALACTLITLPAKVYVG [P15I]: the protein stability index was determined as 3.1.
The value for FGPDSKSSALACTLTTLPAKVYVG [P15T] was 1.59.
With FGPDSKSSALACTLLTLPAKVYVG [P15L] the figure was 1.8; with FGPDSKSSALACTLGTLPAKVYVG [P15G], 1.61; with FGPDSKSSALACTLCTLPAKVYVG [P15C], 2.19.
Take FGPDSKSSATACTLPTLPAKVYVG [L10T]: the protein stability index was determined as 3.57.
With FGPDSKSSAQACTLPTLPAKVYVG [L10Q] the figure was 2.95; with FGPDSKSSAAACTLPTLPAKVYVG [L10A], 2.99; with FGPDSKSSASACTLPTLPAKVYVG [L10S], 2.64.
With FGPDSKSSAKACTLPTLPAKVYVG [L10K] the figure was 3.29; with FGPDSKSSAFACTLPTLPAKVYVG [L10F], 2.15; with FGPDSKSSARACTLPTLPAKVYVG [L10R], 3.23.
The value for FGPDSKSSAGACTLPTLPAKVYVG [L10G] was 2.93; that for FGPDSKSSADACTLPTLPAKVYVG [L10D] was 3.99; that for FGPDSKSSANACTLPTLPAKVYVG [L10N] was 3.73.
For the variant FGPDSKSSAIACTLPTLPAKVYVG [L10I], the protein stability index stood at 2.12.
The value for FGPDSKSSAHACTLPTLPAKVYVG [L10H] was 2.88.
With FGPDSKSSACACTLPTLPAKVYVG [L10C] the figure was 2.69; with FGPDSKSSAEACTLPTLPAKVYVG [L10E], 3.65; with FGPDSKSSAPACTLPTLPAKVYVG [L10P], 3.58.
In the case of FGPDSKSSAMACTLPTLPAKVYVG [L10M], the protein stability index is 2.69.
The value for FGPDSKSSAVACTLPTLPAKVYVG [L10V] was 2.88; that for FGPDSKSSAYACTLPTLPAKVYVG [L10Y] was 1.86; that for FGPDSKSSALACLLPTLPAKVYVG [T13L] was 1.83.
The value for FGPDSKSSALACELPTLPAKVYVG [T13E] was 2.7.
For FGPDSKSSALACHLPTLPAKVYVG [T13H], the protein stability index was 1.85.
As to FGPDSKSSALACSLPTLPAKVYVG [T13S], the protein stability index was found to be 2.44.
With FGPDSKSSALACALPTLPAKVYVG [T13A] the figure was 2.28.
The value for FGPDSKSSALACFLPTLPAKVYVG [T13F] was 2.39; that for FGPDSKSSALACVLPTLPAKVYVG [T13V] was 1.79.
The value for FGPDSKSSALACPLPTLPAKVYVG [T13P] was 1.88; that for FGPDSKSSALACNLPTLPAKVYVG [T13N] was 2.9.
As to FGPDSKSSALACILPTLPAKVYVG [T13I], the protein stability index came out at 2.18.
The value for FGPDSKSSALACYLPTLPAKVYVG [T13Y] was 1.86; that for FGPDSKSSALACKLPTLPAKVYVG [T13K] was 2.46.
Take FGPDSKSSALACRLPTLPAKVYVG [T13R]: the protein stability index was found to be 2.33.
In the case of FGPDSKSSALACQLPTLPAKVYVG [T13Q], the protein stability index was determined as 2.19.
With FGPDSKSSALACWLPTLPAKVYVG [T13W], the protein stability index was 3.59.
Consider FGPDSKSSALACDLPTLPAKVYVG [T13D], for which the protein stability index is 2.81.
The value for FGPDSKSSALACMLPTLPAKVYVG [T13M] was 2.15; that for FGPDSKSSALACGLPTLPAKVYVG [T13G] was 1.85.
With FGPDSKSSALACCLPTLPAKVYVG [T13C] the figure was 1.96.
Consider FGPDSKSSALACTLPMLPAKVYVG [T16M], for which the protein stability index turned out to be 1.76.
As for FGPDSKSSALACTLPVLPAKVYVG [T16V], the protein stability index amounted to 2.08.
The value for FGPDSKSSALACTLPQLPAKVYVG [T16Q] was 2.2; that for FGPDSKSSALACTLPALPAKVYVG [T16A] was 2.
Turning to FGPDSKSSALACTLPNLPAKVYVG [T16N], the protein stability index turned out to be 2.06.
In the case of FGPDSKSSALACTLPDLPAKVYVG [T16D], the protein stability index amounted to 2.45.
With FGPDSKSSALACTLPYLPAKVYVG [T16Y] the figure was 2.45.
In the case of FGPDSKSSALACTLPFLPAKVYVG [T16F], the protein stability index amounted to 2.38.
With FGPDSKSSALACTLPSLPAKVYVG [T16S] the figure was 2.41; with FGPDSKSSALACTLPKLPAKVYVG [T16K], 2.33; with FGPDSKSSALACTLPHLPAKVYVG [T16H], 2.2.
The value for FGPDSKSSALACTLPLLPAKVYVG [T16L] was 1.73; that for FGPDSKSSALACTLPPLPAKVYVG [T16P] was 2.05.
Regarding FGPDSKSSALACTLPILPAKVYVG [T16I], the protein stability index stood at 1.66.
Turning to FGPDSKSSALACTLPELPAKVYVG [T16E], the protein stability index turned out to be 2.4.
As for FGPDSKSSALACTLPRLPAKVYVG [T16R], the protein stability index was determined as 1.97.
In the case of FGPDSKSSALACTLPWLPAKVYVG [T16W], the protein stability index was determined as 3.26.
On to FGPDSKSSALACTLPGLPAKVYVG [T16G], for which the protein stability index worked out at 1.88.
For the variant FGPDSKSSALACTLPCLPAKVYVG [T16C], the protein stability index was 2.02.
As to FGPDSKSSALATTLPTLPAKVYVG [C12T], the protein stability index was determined as 2.76.
The value for FGPDSKSSALAFTLPTLPAKVYVG [C12F] was 1.7; that for FGPDSKSSALAKTLPTLPAKVYVG [C12K] was 2.95.
The value for FGPDSKSSALARTLPTLPAKVYVG [C12R] was 2.5.
The value for FGPDSKSSALAETLPTLPAKVYVG [C12E] was 3.13; that for FGPDSKSSALASTLPTLPAKVYVG [C12S] was 2.87.
On to FGPDSKSSALAGTLPTLPAKVYVG [C12G], for which the protein stability index worked out at 2.41.
With FGPDSKSSALAWTLPTLPAKVYVG [C12W] the figure was 1.88.
The value for FGPDSKSSALANTLPTLPAKVYVG [C12N] was 2.77.
The value for FGPDSKSSALAQTLPTLPAKVYVG [C12Q] was 2.36.
Regarding FGPDSKSSALALTLPTLPAKVYVG [C12L], the protein stability index came to 2.33.
On to FGPDSKSSALAYTLPTLPAKVYVG [C12Y], for which the protein stability index was 1.88.
For the variant FGPDSKSSALAMTLPTLPAKVYVG [C12M], the protein stability index was 2.77.
With FGPDSKSSALAATLPTLPAKVYVG [C12A] the figure was 2.87; with FGPDSKSSALAITLPTLPAKVYVG [C12I], 2.3; with FGPDSKSSALAHTLPTLPAKVYVG [C12H], 3.16.
The value for FGPDSKSSALADTLPTLPAKVYVG [C12D] was 2.95.
Consider FGPDSKSSALAVTLPTLPAKVYVG [C12V], for which the protein stability index is 2.19.
With FGPDSKLSALACTLPTLPAKVYVG [S7L], the protein stability index was found to be 2.07.
With FGPDSKPSALACTLPTLPAKVYVG [S7P] the figure was 1.97.
With FGPDSKVSALACTLPTLPAKVYVG [S7V] the figure was 1.73; with FGPDSKQSALACTLPTLPAKVYVG [S7Q], 3.06.
For FGPDSKYSALACTLPTLPAKVYVG [S7Y], the protein stability index came to 1.06.
Take FGPDSKNSALACTLPTLPAKVYVG [S7N]: the protein stability index is 2.23.
Turning to FGPDSKWSALACTLPTLPAKVYVG [S7W], the protein stability index was 1.97.
Take FGPDSKMSALACTLPTLPAKVYVG [S7M]: the protein stability index worked out at 2.25.
With FGPDSKTSALACTLPTLPAKVYVG [S7T] the figure was 2.37.
Take FGPDSKRSALACTLPTLPAKVYVG [S7R]: the protein stability index worked out at 2.35.
